According to the nanobody polyreactivity screen of Harvey et al. (2022):

Assay: yeast display, Sf9 membrane polyspecificity reagent, FACS + sequencing; frameworks hold sequencing errors
How it was run: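 Sorting gates, low and high (top ~1%), were placed on anti-HA fluorescence to track expression and on streptavidin fluorescence to track reagent binding. A clone's polyreactivity label is taken from the gate it came out of. The reagent was 10% biotinylated, detergent-solubilized Sf9 membrane, applied for 1 hour at 4 °C to galactose-induced yeast display cells.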

Row | Sequence | polyreactivity (PSR sort gate)
1 | HVQLVESAGGLVQAGGSLRLSCAASGRIFAVYAMGWYRQAPGKERELVAAISYIGGSTYYADSVKGRFTISRDNAKNTVYLQMNSLKPEDTAVYYCNKDIPKRQYVVYRTAYEYDYWGQGTQVSVSS | low polyreactivity
2 | QVQLVESGGGLVQAGGSLRLSCAASGRIFGYNVMGWYRQAPGKERELVAAISYGGGRTTYADSVKGRFTISRDNAKNTVYLQMNSLKPEDTAVYYCNAGGQHVTLDNGDYWGQGTQVTVSS | high polyreactivity
3 | QVQLVESGGGLVQAGGSLRLSCAASGFTFGYYAMGWYRQAPGKERELVASISWRGGSTYYADSVKGRFTISRDNAKNTVYLQMNSLKPEDTAVYYCATKYTGPYYRTMNYWGQGTQVTVSS | high polyreactivity
4 | QVQLVESGGGLVQAGGSLRLSCASSGIIFSYNAMGWSRQAPGKERELVAAISSGGRTYYADSVKGRFTISRDNAKNTVYLQMKSLKPEDTAVYYCATTSPHRLYGYYYDYWGQGTQVTVSS | high polyreactivity
5 | QVQLVESGGGLVQAGGSLRLSCAASGRIFLGYAMGWYRQPPGKVSELVAAINSVASTNYADSVKGRFTISRDNAKNTVYLQMNSLKPEDTAVYYCAAVYFLVQSDLPAYDYWGQGTLVTVSS | low polyreactivity
6 | QVQLVESGGGLLQAGGSLSLSCAASGRTFVPYTMGWYRPAPGKERELVAAISWSDGTTYYADSVKGRFTISRDNAKNTVYLQMNSLKPEDTAVYYCNDDVYLFNYFGGWYYAGYDYWGQGTQVTVSS | high polyreactivity
7 | QVQLVESGGGLVQAGGSLRLSCAASGSIFVRNALGWYRQAPGKEREFVAIRFSGATTYYADSVKGRFTISRDNAKNTVYLQMNSLKPEDTAVYYCAAVARTYGRTSYYWGQGTQVTVSS | high polyreactivity
8 | QVQLVESGGGLVQAGGSLRLSCAASGRIFSKYAMGWYRQAPGKERELVASIRWRGDRTYYADSVKGRFTISRDNAKNTVYLQMNSLKPEDTAVYYCAVETLWQGSEYWVQGTQVTVSS | low polyreactivity
9 | QVQLVESGGGLVQAGRSLRLSCAASGSTLQNNGMGWYRQAPGKERELVAAISIGGDTNYADSVKGRFTISRDNAKNTEMNSMKPEDTAGYYCNTDYFGSQVVVIFDFWGQGTQVTVSS | low polyreactivity
10 | QVQLVESGGGLVQAGGSLRLSCAASGSIFYGNAMGWYRQAPGKERELVARISWSGSNTRYADSVKGRFTISRDNAKNTVYLQMNSLKPEDTAVYYCNVKPSARGSPLYDYWGQGTQVTVSS | high polyreactivity
11 | QVQLVESGGGLVQAGGSLRLSCAASGIIFAWYAMGWYRQAPGKERELVAAINWSGGSTYYADSVKGRFTISRDYAKNTVYLQMNSLKPEDTAVYYCARSSRGKLDYWGQGTQVTVSS | low polyreactivity
12 | QVQLVESGGGLVQAGGSLRLSCAASGSTFGYYTMGWYRQAPGKERELVAAISWGGGSTYYADSVKGRFTISRDNAKNTVYFQMNSLIPEDTAVYYCARTPVTSYKDDFYYWGQGTQVTVSS | low polyreactivity
13 | QVQLVESGGGLVQAGGSLRLSCAASGFTFRRYAMGWYRQAPGKERELVATITKGGGSTYYADSVKGRFTISRDNAKNTVYLQMNSLKPEDTAVYYCAKRYPYGLTVGASDYWGQCTQVTVSS | high polyreactivity
14 | QVQLVESGGGLVQAGGSLRLSCAASGRIFWGYAMGWYRQAPGKERELVAAISWSGGSTYYADSVKGRFTISRDNAKNTVYLQMNSLKPEDTAVYYCNAYSDGDEDYWGQGTQVTVSS | low polyreactivity
15 | QVQLVESVGGLVQAGGSLRLSCAASGRIFYPYAMGWYRQAPGKERELVAAITRGGITTYADSVYGRFTISRDNAKNTVYLQMNSLKPEDTAVYYCNAVRWYGRMDYWGQGTQVTVSS | low polyreactivity
16 | QVQLVESGGGLVKAGGSLRLSCAASGRIFYGYAMGWYRQAPGKERELVAAITRSGTSTYYADSVKGRFTISRDNAKNTVYLQMHSLKPEDTAVYYCAAVERSLRSPYGDYGYWGHGTQVTVSS | high polyreactivity
17 | KVQLVESGGGLVQAGGSIRLSCDASGRSFYYYAMGWYRQAPGKEREWVAAINTRGTSTYYADSVKGRFTISRDNAKNTVYLQMNSLKPEDTAVYYCAVDPYGDSWEDWFRNYYYGYDYWGQGTQGTVSS | low polyreactivity
